B1: H4H15316P (antibody, human IgG4, V domains shown)
VH: EVQLVESGGGLVQPGRSLRLSCAASGFIFDDYDMHWVRQAPGKGLEWVSGISWNSGSKGYADSVKGRFTISRDNAKNSLYLQMNSLRAEDTALYYCTKGPWDYFDYWGQGTLVTVSS
VL: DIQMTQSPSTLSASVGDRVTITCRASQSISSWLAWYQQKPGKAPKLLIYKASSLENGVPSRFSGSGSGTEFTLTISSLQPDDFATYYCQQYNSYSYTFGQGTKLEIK
notes: H4H prefix: human IgG4 Fc
B2: H4H15341P (antibody, human IgG4, V domains shown)
VH: EVQLVESGGGLVQPGGSLRLSCAASGFTFNNHEMNWVRQAPGKGLEWVSYISSSGNTVTYADFLKGRFTISRDNAKNSLFLQMNSLRDEDTAVYYCARDHLSGTSPLSYWGQGTLVTVSS
VL: DIQMTQSPSSLSASVGDRVTITCQASQDINNYLNWFQQKPGKAPKLLIFDASNLETGVPSRFSGSGSGTDFTFTISSLQPEDIATYFCQQYENLPYTFGQGTKLEIK
notes: H4H prefix: human IgG4 Fc
B3: H4H15367P2 (antibody, human IgG4, V domains shown)
VH: QVQLVESGGGVVQPGRSVRLSCGASGFTFKYYGMHWVRQAPGKGLEWVAVIWYDGRNKFYADSVKGRFTISRDNSKNTVNLEMNNLRAEDTAIYYCARDGGTADGDYFDYWGQGTLVTVSS
VL: not shown
notes: H4H prefix: human IgG4 Fc
B4: H4H15330P (antibody, human IgG4, V domains shown)
VH: QVQLVESGGGLVKPGGSLRLSCAASGFTFSDYYMSWIRQAPGKGLEWISHISGSGRTTHYADSMKGRFTISRDNAKNSLYLQMNSLRAEDTAVYYCVREGGFNWNYEGTFDIWGQGTMVTVSS
VL: DIVMTQTPLSSPVTLGQPASISCRSSQSLLHSDQNTYLSWLHQRPGQPPRLLIYKISNRFSGVPDRFSGSGAGTDFTLKISRVEAEDVGIYYCMQGTQFPLTFGGGTKVEIK
notes: H4H prefix: human IgG4 Fc

Legend:
[1] = molecular target: T1, human ANGPTL8 expressed with C-terminal mouse IgG2a Fc tag (hANGPTL8-mFc; SEQ ID NO: 340) (human); assay: BLI Octet, captured antigen, 100 nM mAb, 25C
T1 construct: also called Angiopoietin-like protein 8
T1 chain: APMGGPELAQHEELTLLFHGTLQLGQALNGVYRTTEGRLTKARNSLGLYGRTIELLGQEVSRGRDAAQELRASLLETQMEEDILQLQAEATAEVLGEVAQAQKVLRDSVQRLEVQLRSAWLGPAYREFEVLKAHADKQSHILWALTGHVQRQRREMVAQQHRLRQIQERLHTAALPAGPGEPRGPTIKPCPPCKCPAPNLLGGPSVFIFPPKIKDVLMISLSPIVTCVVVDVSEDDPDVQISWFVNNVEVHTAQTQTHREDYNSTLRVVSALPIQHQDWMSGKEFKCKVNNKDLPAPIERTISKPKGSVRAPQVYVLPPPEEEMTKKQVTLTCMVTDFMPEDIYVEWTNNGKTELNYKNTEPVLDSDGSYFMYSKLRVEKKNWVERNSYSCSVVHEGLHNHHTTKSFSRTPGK

[2] = molecular target: T2, monkey ANGPTL8 expressed with C-terminal mouse IgG2a Fc tag (MfANGPTL8-mFc; SEQ ID NO: 341) (cynomolgus monkey); assay: BLI Octet, captured antigen, 100 nM mAb, 25C
T2 construct: also called cynomolgus monkey ANGPTL8
T2 chain: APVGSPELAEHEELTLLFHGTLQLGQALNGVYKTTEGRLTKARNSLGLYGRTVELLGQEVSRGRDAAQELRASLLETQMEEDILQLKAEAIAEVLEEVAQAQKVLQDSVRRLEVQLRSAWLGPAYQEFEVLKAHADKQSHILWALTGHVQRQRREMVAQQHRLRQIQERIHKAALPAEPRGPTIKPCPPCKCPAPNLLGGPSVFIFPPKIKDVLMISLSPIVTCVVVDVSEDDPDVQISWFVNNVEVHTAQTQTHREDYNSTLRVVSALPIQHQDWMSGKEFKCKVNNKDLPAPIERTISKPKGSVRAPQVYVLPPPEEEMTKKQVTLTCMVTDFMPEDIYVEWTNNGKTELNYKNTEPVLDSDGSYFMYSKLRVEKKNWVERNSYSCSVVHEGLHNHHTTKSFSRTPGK

[3] = molecular target: T1, human ANGPTL8 expressed with C-terminal …; assay: BLI Octet, captured antigen, 100 nM mAb, 25C
[4] = molecular target: T3, anti-mFc (AMC) Octet biosensor, blank; assay: BLI Octet, blank AMC sensor, 100 nM mAb, 25C
T3 construct: Sensor without captured protein, used as blank; also called Blank AMC Sensor
Procedure, shortened: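 Antigen-mFc (human or cynomolgus ANGPTL8; hLDLR-mFc as negative control; one blank sensor) captured to ~1.6 nm from 10 μg/mL over 4 min. Sensors dipped 4 min in 100 nM mAb or isotype control at 25° C. Buffer: 10 mM HEPES pH 7.4, 150 mM NaCl, 0.05% Tween-20, 1 mg/ml BSA, shaken at 1000 rpm.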

[5] = molecular target: T4, human ANGPTL8 peptide (hANGPTL8 peptide, SEQ ID NO: 337) (human); assay: SPR, captured mAb, 500 nM peptide, 25C
T4 construct: also called N-terminal region ANGPTL8 peptide
T4 peptide: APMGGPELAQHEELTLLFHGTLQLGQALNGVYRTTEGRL

[6] = molecular target: T5, peptide from the N-terminal coiled-coil region of human ANGPTL4 (hANGPTL4 peptide, SEQ ID NO: 339) (human); assay: SPR, captured mAb, 500 nM peptide, 25C
T5 peptide: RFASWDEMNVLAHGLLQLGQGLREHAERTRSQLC

[7] = molecular target: T6, peptide from the N-terminal coiled-coil region of human ANGPTL3 (hANGPTL3 peptide, SEQ ID NO: 338) (human); assay: SPR, captured mAb, 500 nM peptide, 25C
T6 construct: also called hANGPTL3 shift peptide
T6 peptide: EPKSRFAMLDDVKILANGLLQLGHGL

[8] = molecular target: T2, monkey ANGPTL8 expressed with …; assay: SPR MASS-1, antigen-mFc captured, mAb injected, 25C; no dissociation seen, kd fixed at the detection limit
Protocol: (§1) All binding studies were performed in 10 mM HEPES pH 7.4, 150 mM NaCl, 3 mM EDTA, and 0.05% v/v Surfactant Tween-20 (HBS-ET running buffer) at 25° C. The HCA sensor surface was first derivatized by amine coupling goat anti-mouse IgG2a polyclonal antibody (Southern Biotech, #1080-01) onto which was then captured approximately 30 RU ([…]) of human ANGPTL8 expressed with C-terminal mouse IgG2a Fc tag (hANGPTL8-mFc; SEQ ID NO: 340) or monkey ANGPTL8 expressed with C-terminal mouse IgG2a Fc tag (MfANGPTL8-mFc; SEQ ID NO: 341).
(§2) Kinetic association (kₐ) and dissociation (kd) rate constants were determined by fitting the real-time binding sensorgrams to a 1:1 binding model with mass transport limitation using Scrubber 2.0c curve-fitting software. Binding dissociation equilibrium constants (KD) and dissociative half-lives (t½) were calculated from the kinetic rate constants as: […]
(§3) To obtain an estimate of the binding affinity the dissociation rate constant, kd, was fixed at the upper detection limit under the experimental conditions, 1.0E-05 1/s.

[9] = molecular target: T1, human ANGPTL8 expressed with C-terminal …; assay: as above
Protocol: as §1, §2, §3

[10] = molecular target: T2, monkey ANGPTL8 expressed with …; assay: SPR MASS-1, antigen-mFc captured, mAb injected, 25C
Protocol: as §1, §2

[11] = molecular target: T1, human ANGPTL8 expressed with C-terminal …; assay: as above
Protocol: as §1, §2

[12] = molecular target: T7, linear peptide 1APMGGPELAQHEELT15 (SEQ ID NO: 348) (human); assay: Pepscan peptide array ELISA, 1 µg/ml antibody
T7 construct: Synthesized on a solid support (Pepscan array)
T7 peptide: APMGGPELAQHEELT

[13] = molecular target: T1, human ANGPTL8 expressed with C-terminal …; assay: BLI Octet, captured antigen, 100 nM mAb, 25C; background 0.03 nm
Protocol: Binding of ANGPTL8 antibodies to human and monkey ANGPTL8 proteins was investigated using Bio-layer Interferometry with an Octet HTX biosensor platform (ForteBio, A Division of Pall Life Sciences). All experiments were performed at 25° C. in 10 mM HEPES pH 7.4, 150 mM NaCl, 0.05% v/v Surfactant Tween-20, and 1 mg/ml BSA with the reaction multiwell plate agitated at 1000 rpm. Approximately 1.6 nm of human ANGPTL8 produced with a C-terminal mouse IgG2a Fc tag (hANGPTL8-mFc; SEQ ID NO: 340) or cynomolgus monkey ANGPTL8 produced with a C-terminal mouse IgG2a Fc tag (MfANGPTL8-mFc; SEQ ID NO: 341) was captured onto anti-mFc (AMC) Octet biosensors by submerging the sensors into wells containing 10 μg/mL of each protein for 4 minutes. Under the same conditions a negative control protein with the same mFc tag (hLDLR-mFc) was also coupled to the AMC sensor. All four sensors, […] and one blank, were then submerged into wells containing 100 nM of different ANGPTL8 monoclonal antibodies or an isotype control for 4 minutes.

[14] = molecular target: T8, negative control protein with the same mFc tag (hLDLR-mFc) (human; mouse, UniProt P01130 22-788, limits assumed); assay: BLI Octet, captured antigen, 100 nM mAb, 25C
T8 construct: also called Irrelevant control; not shown: mouse IgG2a Fc tag (same mFc tag as hANGPTL8-mFc)
T8 sequence (P01130 22-788 limits assumed): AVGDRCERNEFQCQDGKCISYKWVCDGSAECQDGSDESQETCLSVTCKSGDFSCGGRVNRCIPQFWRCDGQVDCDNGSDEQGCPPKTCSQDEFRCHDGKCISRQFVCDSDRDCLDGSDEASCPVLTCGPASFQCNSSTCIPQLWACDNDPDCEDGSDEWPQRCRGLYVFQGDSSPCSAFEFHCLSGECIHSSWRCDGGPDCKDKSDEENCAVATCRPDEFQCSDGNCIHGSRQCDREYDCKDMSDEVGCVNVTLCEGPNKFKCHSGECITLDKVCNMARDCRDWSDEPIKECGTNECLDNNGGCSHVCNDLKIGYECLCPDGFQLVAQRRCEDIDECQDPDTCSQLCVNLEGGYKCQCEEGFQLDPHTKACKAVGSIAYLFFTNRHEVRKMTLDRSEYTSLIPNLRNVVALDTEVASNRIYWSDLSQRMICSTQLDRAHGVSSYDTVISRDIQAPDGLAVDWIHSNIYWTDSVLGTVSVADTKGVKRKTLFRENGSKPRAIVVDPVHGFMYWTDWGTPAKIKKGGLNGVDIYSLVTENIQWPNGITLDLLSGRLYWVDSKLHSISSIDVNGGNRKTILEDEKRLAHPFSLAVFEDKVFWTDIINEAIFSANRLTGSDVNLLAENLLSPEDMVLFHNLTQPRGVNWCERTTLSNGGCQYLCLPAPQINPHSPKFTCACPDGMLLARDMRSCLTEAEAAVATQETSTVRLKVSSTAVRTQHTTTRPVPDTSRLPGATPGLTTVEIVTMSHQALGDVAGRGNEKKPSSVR

Binder	mAb Binding Response (nm) [2] [nm]	mAb Binding Response (nm) [3] [nm]	mAb Binding Response (nm) [4] [nm]	500 nM hANGPTL8 peptide Bound (RU) [5] [RU]	binding result [5]	500 nM hAngPTL4 peptide Bound (RU) [6] [RU]	binding result [6]	500 nM hANGPTL3 peptide Bound (RU) [7] [RU]	binding result [7]	binding signal, fold above background [13] [fold]	other results
B1	0.02	0.03	0.02	0	no binding (tested: <9 RU at 500 nM peptide)	0	no binding (tested: <9 RU at 500 nM peptide)	0	no binding (tested: <9 RU at 500 nM peptide)	–	binding result [1]: no binding (tested: 100 nM mAb; background 0.03 nm)
B2	0.1	0.12	0.03	0	no binding (tested: <9 RU at 500 nM peptide)	0	no binding (tested: <9 RU at 500 nM peptide)	0	no binding (tested: <9 RU at 500 nM peptide)	–	koff [8]: ≤ 1e-05 s⁻¹; koff [9]: ≤ 1e-05 s⁻¹; Kd [10]: ≤ 86 pM; kon [10]: 116000 M⁻¹ s⁻¹; t½ [10]: ≥ 19.2 h; Kd [11]: ≤ 117 pM; kon [11]: 85000 M⁻¹ s⁻¹; t½ [11]: ≥ 19.2 h
B3	0.33	0.32	0	43	–	0	no binding (tested: <9 RU at 500 nM peptide)	0	no binding (tested: <9 RU at 500 nM peptide)	≥ 10	binding result [12]: binds; koff [5]: 9.82e-05 s⁻¹; t½ [5]: 1.97 h
B4	0.39	0.34	0.01	0	no binding (tested: <9 RU at 500 nM peptide)	0	no binding (tested: <9 RU at 500 nM peptide)	-1	–	≥ 10	mAb Binding Response (nm) [14]: 0.02 nm
